Data set [1] addresses T1, His-MBP-Lin28TT (Homo sapiens, UniProt Q9H9Z2 32-187).
T1 sequence: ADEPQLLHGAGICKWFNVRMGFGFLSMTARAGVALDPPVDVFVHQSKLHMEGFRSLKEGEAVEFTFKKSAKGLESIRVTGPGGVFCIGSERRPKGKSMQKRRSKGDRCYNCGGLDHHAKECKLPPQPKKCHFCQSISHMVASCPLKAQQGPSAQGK
The data set is described as follows: fluorescence anisotropy; 500 mM NaCl; 50 uM ZnCl2; FA: 20 nM 5'-fluorescein RNA, 20 mM Tris-HCl pH 7.5, 50-750 mM NaCl (100 mM for the main miR-363 Kd), 10 mM beta-mercaptoethanol, 50 uM ZnCl2, 0.01% Tween 20, 2. On the technique in general: In fluorescence polarisation assays a small probe gives low polarisation when free and higher when bound to something large.

Data set [2] concerns the target T1, His-MBP-Lin28TT. The data set can be described thus: fluorescence anisotropy; 750 mM NaCl; 50 uM ZnCl2; FA: 20 nM 5'-fluorescein RNA, 20 mM Tris-HCl pH 7.5, 50-750 mM NaCl (100 mM for the main miR-363 Kd), 10 mM beta-mercaptoethanol, 50 uM ZnCl2, 0.01% Tween 20, 2.
Data set [3] has as its target T1, His-MBP-Lin28TT. The data set is described as follows: fluorescence anisotropy; 100 mM NaCl; 50 uM ZnCl2; FA: 20 nM 5'-fluorescein RNA, 20 mM Tris-HCl pH 7.5, 50-750 mM NaCl (100 mM for the main miR-363 Kd), 10 mM beta-mercaptoethanol, 50 uM ZnCl2, 0.01% Tween 20, 2.
Data set [4] addresses T1, His-MBP-Lin28TT. The data set is described as follows: fluorescence anisotropy; 250 mM NaCl; 50 uM ZnCl2; FA: 20 nM 5'-fluorescein RNA, 20 mM Tris-HCl pH 7.5, 50-750 mM NaCl (100 mM for the main miR-363 Kd), 10 mM beta-mercaptoethanol, 50 uM ZnCl2, 0.01% Tween 20, 2.
For data set [5], the target named is T1, His-MBP-Lin28TT. The data set can be described thus: fluorescence anisotropy; 50 uM ZnCl2; FA: 20 nM 5'-fluorescein RNA, 20 mM Tris-HCl pH 7.5, 50-750 mM NaCl (100 mM for the main miR-363 Kd), 10 mM beta-mercaptoethanol, 50 uM ZnCl2, 0.01% Tween 20, 2.

This is an account of results in publication PMC5193468.

B1: miR-363 19-46 (structured_RNA)
RNA: GAUGCAAUUUUGAUGAGUAUCAUAGGAG
A word on the Kd: it is the concentration at which binding is half-saturated. Take B1: the Kd with His-MBP-Lin28TT [1] stood at 8 ± 0.8 nM; with His-MBP-Lin28TT [2] it was 12.4 ± 1.1 nM; with His-MBP-Lin28TT [3], 16.6 ± 1.9 nM; with His-MBP-Lin28TT [4], 6.6 ± 0.9 nM.

B2: let-7g 29-57 (structured_RNA)
RNA: CGGGUCUAUGAUACCACCCGGUACAGGAG
B2: the affinity in the data set with His-MBP-Lin28TT [5], expressed as Kd, was 54.1 ± 4.2 nM.
